The values that follow come from article PMC13538652.

The data set concerns the target T1, GZF1-Flag (UniProt Q4VBD9 1-706).
T1 sequence: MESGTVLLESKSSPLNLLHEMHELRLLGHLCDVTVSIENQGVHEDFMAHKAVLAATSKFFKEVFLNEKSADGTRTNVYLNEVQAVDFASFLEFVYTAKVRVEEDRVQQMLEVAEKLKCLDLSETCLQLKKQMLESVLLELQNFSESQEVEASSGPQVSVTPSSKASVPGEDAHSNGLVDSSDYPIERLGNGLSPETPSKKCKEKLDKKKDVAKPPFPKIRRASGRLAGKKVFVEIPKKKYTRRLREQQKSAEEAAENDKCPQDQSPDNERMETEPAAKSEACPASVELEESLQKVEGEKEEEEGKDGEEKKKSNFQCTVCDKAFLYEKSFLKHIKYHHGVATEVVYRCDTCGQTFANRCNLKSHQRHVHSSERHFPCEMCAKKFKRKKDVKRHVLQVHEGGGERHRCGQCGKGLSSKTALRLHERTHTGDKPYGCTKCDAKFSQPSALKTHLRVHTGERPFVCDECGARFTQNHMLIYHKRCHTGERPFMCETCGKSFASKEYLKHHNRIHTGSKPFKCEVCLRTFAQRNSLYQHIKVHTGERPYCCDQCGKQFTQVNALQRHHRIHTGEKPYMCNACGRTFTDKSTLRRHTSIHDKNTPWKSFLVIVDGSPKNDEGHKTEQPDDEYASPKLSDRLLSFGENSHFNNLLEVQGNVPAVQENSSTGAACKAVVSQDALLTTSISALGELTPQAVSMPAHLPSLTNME
Put plainly: PBM.

With GAGGCCATTACGGTAATGCCTCCTGGCATTACCGTAATGGCCTCACACTC (structured_DNA) [Gzf1_bs_unmethylated], the binding result is listed as “binds”.
